Publication PMC11931385, “Structural and functional analysis of cancer-associated missense variants in the retinoblastoma protein pocket domain” (The Journal of Biological Chemistry, 2025)
No end group written: not given here. TMR = tetramethyl rhodamine dye

T1: Rb^P Q444R (human, UniProt P06400 380-788, Q444R)
T1 construct: also called variant 4
T1 sequence (looked up): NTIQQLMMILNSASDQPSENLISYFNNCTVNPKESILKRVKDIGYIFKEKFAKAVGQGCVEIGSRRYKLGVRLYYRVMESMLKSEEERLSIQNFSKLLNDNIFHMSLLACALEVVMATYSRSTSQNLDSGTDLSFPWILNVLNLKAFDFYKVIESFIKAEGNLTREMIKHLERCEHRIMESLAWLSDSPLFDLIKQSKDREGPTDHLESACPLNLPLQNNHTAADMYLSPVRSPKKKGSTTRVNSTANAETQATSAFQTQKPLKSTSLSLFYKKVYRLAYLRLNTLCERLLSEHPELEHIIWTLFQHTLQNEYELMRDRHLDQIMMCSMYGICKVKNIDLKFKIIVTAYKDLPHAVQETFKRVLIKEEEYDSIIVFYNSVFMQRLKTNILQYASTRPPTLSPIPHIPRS

T2: Rb^P R611S (human, UniProt P06400 380-788, R611S)
T2 construct: also called variant 38
T2 sequence (looked up): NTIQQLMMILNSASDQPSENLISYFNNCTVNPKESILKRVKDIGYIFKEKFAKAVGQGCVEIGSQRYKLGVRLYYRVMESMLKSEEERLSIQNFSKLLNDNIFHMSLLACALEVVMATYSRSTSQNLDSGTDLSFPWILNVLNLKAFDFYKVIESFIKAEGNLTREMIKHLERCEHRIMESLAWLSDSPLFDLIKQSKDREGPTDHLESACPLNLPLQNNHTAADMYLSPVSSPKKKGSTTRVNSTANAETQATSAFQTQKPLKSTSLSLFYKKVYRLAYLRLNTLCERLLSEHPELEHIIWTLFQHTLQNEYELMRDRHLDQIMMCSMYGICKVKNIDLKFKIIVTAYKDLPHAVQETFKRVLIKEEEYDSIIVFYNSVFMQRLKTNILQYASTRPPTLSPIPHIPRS

T3: Rb^P R656W (human, UniProt P06400 380-788, R656W)
T3 construct: also called variant 49
T3 sequence (looked up): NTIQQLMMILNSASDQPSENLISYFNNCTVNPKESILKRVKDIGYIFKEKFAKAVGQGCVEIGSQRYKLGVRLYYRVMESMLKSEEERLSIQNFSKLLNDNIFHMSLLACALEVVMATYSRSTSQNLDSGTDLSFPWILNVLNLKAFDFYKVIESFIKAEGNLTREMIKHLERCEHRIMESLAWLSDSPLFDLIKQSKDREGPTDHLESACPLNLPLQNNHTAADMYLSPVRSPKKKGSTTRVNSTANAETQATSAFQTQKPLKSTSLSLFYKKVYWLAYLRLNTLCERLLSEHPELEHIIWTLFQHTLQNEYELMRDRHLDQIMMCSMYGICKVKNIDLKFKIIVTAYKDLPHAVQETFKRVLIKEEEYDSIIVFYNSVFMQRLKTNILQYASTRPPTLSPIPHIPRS

T4: Rb^P S751C (human, UniProt P06400 380-788, S751C)
T4 construct: also called variant 71
T4 sequence (looked up): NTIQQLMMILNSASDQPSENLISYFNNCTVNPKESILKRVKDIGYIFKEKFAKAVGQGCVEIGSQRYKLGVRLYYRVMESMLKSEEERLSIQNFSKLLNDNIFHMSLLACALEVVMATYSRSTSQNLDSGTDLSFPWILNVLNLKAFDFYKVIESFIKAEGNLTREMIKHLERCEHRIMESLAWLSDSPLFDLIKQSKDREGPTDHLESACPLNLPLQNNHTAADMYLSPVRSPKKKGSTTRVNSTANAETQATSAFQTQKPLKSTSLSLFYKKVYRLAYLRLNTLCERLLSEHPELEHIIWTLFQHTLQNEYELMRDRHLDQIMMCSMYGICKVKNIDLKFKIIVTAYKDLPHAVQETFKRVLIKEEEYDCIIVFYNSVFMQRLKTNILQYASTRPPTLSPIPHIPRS

T5: Rb^P S474I (human, UniProt P06400 380-788, S474I)
T5 construct: also called variant 11
T5 sequence (looked up): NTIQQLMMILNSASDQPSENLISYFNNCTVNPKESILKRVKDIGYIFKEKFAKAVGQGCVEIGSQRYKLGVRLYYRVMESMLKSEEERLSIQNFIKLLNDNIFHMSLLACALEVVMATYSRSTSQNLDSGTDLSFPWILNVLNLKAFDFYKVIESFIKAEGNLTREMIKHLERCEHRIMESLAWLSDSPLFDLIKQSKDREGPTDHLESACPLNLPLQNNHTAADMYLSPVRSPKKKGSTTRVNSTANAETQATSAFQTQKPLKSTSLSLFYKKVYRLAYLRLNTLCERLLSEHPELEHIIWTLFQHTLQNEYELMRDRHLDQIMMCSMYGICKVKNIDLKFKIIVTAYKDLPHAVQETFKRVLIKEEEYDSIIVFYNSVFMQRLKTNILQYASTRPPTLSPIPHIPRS


Key:
Test in all cases: fluorescence polarisation; 25 °C; unlabeled Rb^P titrated against 1.5 nM TMR-E2F1^TD or 7.5 nM TMR-E7^LxCxE; 25 mM Tris pH 8.0, 200 mM NaCl, 1 mM DTT, 0.1% Tween-20; 2 min incubation; quadratic fit; apparent Kd for the variants, Kd for WT
Conditions in all cases: both partners purified
Rb^P Q444R = molecular target: T1, Rb^P Q444R
Rb^P R611S = molecular target: T2, Rb^P R611S
Rb^P R656W = molecular target: T3, Rb^P R656W
Rb^P S751C = molecular target: T4, Rb^P S751C
Rb^P S474I = molecular target: T5, Rb^P S474I

Binder	Kd (Rb^P Q444R) [nM]	Kd (Rb^P R611S) [nM]	Kd (Rb^P R656W) [nM]	Kd (Rb^P S751C) [nM]	Kd (Rb^P S474I) [nM]
{TMR}-GEGIRDLFDCDFGDLTPLD (also called E2F^TD; source: synthetic peptide, bought: GenScript) [TMR-E2F1^TD, peptide of the E2F1 transactivation domain]	15	15	39	66	364
DLYCYEQLN (also: TMR label, position not given here, source: synthetic peptide, bought: GenScript) [TMR-E7^LxCxE, LxCxE peptide of the E7 oncoprotein from HPV]	7	5	8	44	7
